Targets include HLA-B*08:01 (human); HLA-B*51:01 (human); HLA-B*07:02 (human).
What all share (test): cell-based or functional assay

B1: UL26 61-69 … (peptide)
peptide: LPYPRGYTL
modifications: not checked
Regarding B1, the values for the % Positive donors (after 12 days of stimulation), IFNγ ELISpot with HLA-B*08:01 (human) and in the assay with HLA-B*51:01 (human) were 68.8% and 62.5%, respectively.

B2: UL34 180-188 … (peptide)
peptide: LPHERHREL
modifications: not checked
Take B2: the % Positive donors (after 12 days of stimulation), IFNγ ELISpot worked out at 25% with HLA-B*07:02 (human) and 90.9% in the assay with HLA-B*08:01 (human).

For the origin of these results see patent publication US20220332764A1, “T CELL EPITOPES OF HCMV AND USES OF THEREOF” (EBERHARD KARLS UNIVERSITÄT TÜBINGEN, priority 2019, published 2022).
